From US20200325214A1

Tests used:
[1] = molecular target: cynomolgus serum albumin (cynomolgus) (UniProt A2V9Z4); experiment: SPR, scDb, pH 7.4
[2] = molecular target: human serum albumin (human) (UniProt P02768); experiment: SPR, scDb, pH 7.4
[3] = molecular target: cynomolgus serum albumin (cynomolgus) (UniProt A2V9Z4); experiment: SPR, scDb, pH 5.5
[4] = molecular target: human serum albumin (human) (UniProt P02768); experiment: SPR, scDb, pH 5.5

| koff [1] [s⁻¹] | kon [1] [M⁻¹ s⁻¹] | Kd [2] [nM] | koff [2] [s⁻¹] | kon [2] [M⁻¹ s⁻¹] | Kd [3] [nM] | koff [3] [s⁻¹] | kon [3] [M⁻¹ s⁻¹] | Kd [4] [nM] | koff [4] [s⁻¹] | kon [4] [M⁻¹ s⁻¹] | Binder |
| --- | --- | --- | --- | --- | --- | --- | --- | --- | --- | --- | --- |
| 0.000549 | 57000 | 3.36 | 0.000235 | 70100 | 4.82 | 0.000373 | 77600 | 2.3 | 0.000173 | 75000 | PRO480 (bispecific antibody, part only; not given: second specificity domains and linkers, V domains shown, not shown: another chain or arm of the molecule) VL: DVVMTQSPSSLSASVGDRVTITCQASQIISSRSAWYQQKPGQPPKLLIYQASKLASGVPSRFSGSGSGTDFTLTISSLQPEDFATYYCQCTYIDSNFGAFGGGTKLTVLG VH: EVQLVESGGGLVQPGGSLRLSCAASGFSFSSSYWICWVRQAPGKGLEWVGCVFTGDGTTYYASWAKGRFTISRDNSKNTVYLQMNSLRAEDTATYFCARPVSVYYYGMDLWGQGTLVTVSS |
| 0.000221 | 630000 | 0.728 | 0.000345 | 474000 | 0.175 | 0.000175 | 1e+06 | 0.371 | 0.000333 | 897000 | PRO462 (bispecific antibody, part only; not given: second specificity domains and linkers, V domains shown, not shown: another chain or arm of the molecule) VL: DIQMTQSPSSLSASVGDRVTITCQSSESVYSNNQLSWYQQKPGQPPKLLIYDASDLASGVPSRFSGSGSGTDFTLTISSLQPEDFATYYCAGGFSSSSDTAFGGGTKLTVLG VH: EVQLVESGGGLVQPGGSLRLSCAASGFSLSSNAMGWVRQAPGKGLEYIGIISVGGFTYYASWAKGRFTISRDNSKNTVYLQMNSLRAEDTATYFCARDRHGGDSSGAFYLWGQGTLVTVSS |
